± gives the standard deviation of the averaged measurements.
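Note: ATP exposure 15 min at 22 °C before imaging.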

The subject of this data set is ATP. The data set can be described thus: switch fluorescence ratio, 500 uM ATP over buffer (Cy3 cluster intensity, sum of 5 cycles each) (fold (ratio)); higher = stronger signal-on switching upon ATP binding; sequences stand for … in TCGTCGGCAGCGTCAGATGTGTATAAGAGACAGTTTTTTTTTTTTTTTTTTTTTTTTT…TC. Conditions: aptamer strand: ATP DNA aptamer (quencher-CACCTGGGGGAGTATTGCGGAGGAAGG + anchor), 100 nM annealed; ATP concentration: 500 uM. Summed up:
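Switching-strand clusters labelled with Cy3 on a modified Illumina MiSeq flow-cell were annealed to 100 nM quencher-labelled ATP aptamer, imaged in selection buffer, and re-imaged after 15 min with 500 uM ATP at 22 °C. This was done over five cycles with NaOH stripping and re-annealing in between. The fluorescence ratio is summed target-cycle over summed buffer-cycle Cy3 intensity per cluster, averaged per switch-domain sequence, excluding clusters outside 100-1000 RFU.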
For TTAAGCAATT, the switch fluorescence ratio amounted to 1.36 ± 0.047.

For the sequence TTGACAGCGA, the switch fluorescence ratio is 1.22 ± 0.061.

As to ACTGTATGTC, the switch fluorescence ratio amounted to 1.03 ± 0.014.

Take ATAAACAAAG: the switch fluorescence ratio came to 0.959 ± 0.015.

For ATAGGCCGTA, the switch fluorescence ratio came to 1.03 ± 0.045.

In the case of GGGAGAATTA, the switch fluorescence ratio was 1.037 ± 0.0022.

Regarding AGAGGTATAC, the switch fluorescence ratio is 0.969 ± 0.011.

Consider TGCTTCTAAC, for which the switch fluorescence ratio worked out at 1.006 ± 0.0082.

Turning to CAGATGTCAA, the switch fluorescence ratio turned out to be 0.993 ± 0.013.

As for AGTTGGCTGA, the switch fluorescence ratio was 0.9967 ± 0.0063.

Consider AGATTTAGTA, for which the switch fluorescence ratio worked out at 0.982 ± 0.06.

For the sequence CGTTTTTTAT, the switch fluorescence ratio came out at 1.02 ± 0.031.

Regarding ACTAGAAGAC, the switch fluorescence ratio is 1.04 ± 0.012.

TTTAAGTGGG: the switch fluorescence ratio stood at 1.04 ± 0.14.

As to TTTGATGTAC, the switch fluorescence ratio is 1.05 ± 0.013.

Regarding ATTTGGGCTT, the switch fluorescence ratio came to 1.05 ± 0.12.

With ATAGCTGATT, the switch fluorescence ratio was found to be 0.983 ± 0.034.

As for GGGTCAAATA, the switch fluorescence ratio turned out to be 0.982 ± 0.011.

As for TGGACAACTT, the switch fluorescence ratio was 0.995 ± 0.025.

For the sequence TTTATTAAGT, the switch fluorescence ratio was determined as 1.01 ± 0.033.

In the case of ACGGATTTAG, the switch fluorescence ratio worked out at 1.024 ± 0.01.

GAGTAGCATG: the switch fluorescence ratio amounted to 0.993 ± 0.022.

As to ATCTGGTGCT, the switch fluorescence ratio turned out to be 1.052 ± 0.0059.

For the sequence AAGATGGCAG, the switch fluorescence ratio is 0.986 ± 0.029.

Turning to TATAGTAGTG, the switch fluorescence ratio was 0.973 ± 0.014.

With GTTCGTACGT, the switch fluorescence ratio was determined as 0.962 ± 0.082.

On to GGGGGAAGTG, for which the switch fluorescence ratio was 0.976 ± 0.026.

With AATAAACGGG, the switch fluorescence ratio amounted to 1.03 ± 0.015.

On to GAAAGGTCGG, for which the switch fluorescence ratio was found to be 1.21 ± 0.27.

TGGGAAGAGT: the switch fluorescence ratio stood at 0.996 ± 0.028.

For GGTTTCGTCC, the switch fluorescence ratio came out at 1.02 ± 0.0023.

With TTTAAGGAGG, the switch fluorescence ratio came out at 1.03 ± 0.071.

Turning to CTGGGACCTA, the switch fluorescence ratio was determined as 1.02 ± 0.027.

With TTAAATGGGT, the switch fluorescence ratio stood at 1 ± 0.033.

As for TAAAAGAGGG, the switch fluorescence ratio is 0.9558 ± 0.0023.

On to TACTTAGCGA, for which the switch fluorescence ratio amounted to 1.18 ± 0.044.

As for CACTCGCCCG, the switch fluorescence ratio is 1.11 ± 0.042.

Regarding AGGTTGACTG, the switch fluorescence ratio was 0.988 ± 0.1.

As to CAATTAACGG, the switch fluorescence ratio was 1.04 ± 0.027.

For GGTCCTGTGG, the switch fluorescence ratio was determined as 1.005 ± 0.006.

As for TCGATGGGGA, the switch fluorescence ratio is 1.02 ± 0.015.

In the case of GATAAAGTGG, the switch fluorescence ratio worked out at 0.995 ± 0.041.

Regarding TGGGAAAATG, the switch fluorescence ratio is 1.018 ± 0.0069.

Turning to ATTATGGCAC, the switch fluorescence ratio turned out to be 1.01 ± 0.0041.

For TCAGATAAAT, the switch fluorescence ratio amounted to 1.27 ± 0.35.

Consider TTGACGGGAG, for which the switch fluorescence ratio stood at 0.997 ± 0.027.

With TAGGTAAGAT, the switch fluorescence ratio came out at 0.993 ± 0.015.

As for TATGCCTTTG, the switch fluorescence ratio was found to be 0.987 ± 0.033.

In the case of GGAATTGGCG, the switch fluorescence ratio was found to be 1.03 ± 0.023.

Regarding TCTTTCACGC, the switch fluorescence ratio came out at 1.09 ± 0.085.

With AAAGTGCCCG, the switch fluorescence ratio came to 0.979 ± 0.022.

As to CTGAGGGGGG, the switch fluorescence ratio was 0.985 ± 0.019.

For ATGAGGGGAG, the switch fluorescence ratio was 0.997 ± 0.013.

Regarding CCGGTTAAGC, the switch fluorescence ratio was determined as 1.2 ± 0.057.

For GCCCAAGGGG, the switch fluorescence ratio was determined as 1.05 ± 0.091.

As for ATACGGGGGT, the switch fluorescence ratio amounted to 1.005 ± 0.0076.

In the case of TCAGGGGGAA, the switch fluorescence ratio came to 1.01 ± 0.024.

Take TTTTCTAGGT: the switch fluorescence ratio stood at 0.982 ± 0.021.

In the case of TCGAGGGGCG, the switch fluorescence ratio came out at 1.06 ± 0.019.

Consider ACTACTGACA, for which the switch fluorescence ratio is 1.24 ± 0.04.

Take TCATTTGGGA: the switch fluorescence ratio is 1.008 ± 0.0033.

As to CAGGGGGAAC, the switch fluorescence ratio came to 1.04 ± 0.061.

TGAACTGCTG: the switch fluorescence ratio turned out to be 1.017 ± 0.0049.

On to GGTAAAAAAG, for which the switch fluorescence ratio came to 1 ± 0.028.

In the case of GATGTTCAGG, the switch fluorescence ratio amounted to 0.9875 ± 0.0011.

As for GGGGGCAACA, the switch fluorescence ratio is 0.973 ± 0.03.
